One data set concerns the target T1, HutP (V51I) (Bacillus subtilis, UniProt P10943 1-148, V51I).
T1 sequence: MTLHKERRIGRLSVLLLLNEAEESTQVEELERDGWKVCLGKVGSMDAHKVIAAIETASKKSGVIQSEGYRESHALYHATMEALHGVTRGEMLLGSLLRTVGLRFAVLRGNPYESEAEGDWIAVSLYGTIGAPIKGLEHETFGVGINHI
In words: EMSA. For orientation: In EMSA bound probe runs differently from free probe, usually more slowly.

The data set “crystal structure” concerns the molecule itself. In words: crystal structure.

The term stoichiometry N denotes the number of molecules, sites or subunits per partner or assembly.

Consider UUUAGUUUUUAGUUUUUAGUU (ssRNA) [21-mer RNA], for which, in the data set with HutP (V51I), the binding result is “binds”.

B1: HutP (Val 51 Ile mutant), anti-termination protein of the hut operon (natural protein, Bacillus subtilis)
chain: TLHKERRIGRLSVLLLLNEAEESTQVEELERDGWKVCLGKVGSMDAHKVIAAIETASKKSGVIQSEGYRESHALYHATMEALHGVTRGEMLLGSLLRTVGLRFAVLRGNPYESEAEGDWIAVSLYGTIGAPIKGLEHETFGVGINHI
For B1, in “crystal structure”, the “stoichiometry N” value came to 6.

The record behind these values is article PMC2425495 (Nucleic Acids Research, 2008).
